Experimental findings from patent publication US9688764B2, “Methods of treating breast cancer by administering anti-human prolactin receptor (PRLR) antibodies” (REGENERON PHARMACEUTICALS, INC., priority 2013, dated 2017) are described below.

Experiment [1] deals with mfPRLR.mmh (monomeric macaca fascicularis PRLR). As to the kind of experiment: Surface plasmon resonance (Biacore T200), mAb-capture format. Format: binding. The following applies: antibody-capture format, analyte mfPRLR.mmh. The procedure: (§1) Antibodies, expressed as human IgG1 Fc “[…]” designations), were captured onto an anti-human Fc sensor surface (mAb-capture format), and soluble monomeric (hPRLR.mmh; SEQ ID NO:401, or macaca fascicularis (mf) PRLR.mmh; SEQ ID NO:403) or dimeric (hPRLR.mFc; SEQ ID NO:402) PRLR protein was injected over the sensor surface. Measurements were conducted on a T200 Biacore instrument. Kinetic association (ka) and dissociation (kd) rate constants were determined by processing and fitting the data to a 1:1 binding model using Scrubber 2.0 curve fitting software.
mfPRLR.mmh (monomeric macaca fascicularis PRLR), sequence (as listed by the source): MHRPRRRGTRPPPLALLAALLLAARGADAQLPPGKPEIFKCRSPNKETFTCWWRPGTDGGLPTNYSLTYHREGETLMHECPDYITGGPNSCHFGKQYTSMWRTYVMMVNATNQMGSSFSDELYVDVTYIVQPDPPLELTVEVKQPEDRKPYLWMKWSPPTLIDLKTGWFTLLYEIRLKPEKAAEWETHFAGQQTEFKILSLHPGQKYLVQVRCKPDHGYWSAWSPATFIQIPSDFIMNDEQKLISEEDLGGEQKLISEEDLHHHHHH
(In SPR one partner is held on a chip, and binding of the other changes the refractive index at the surface.)

Experiment [2] has as its target T1, hPRLR.mFc (soluble dimeric human PRLR) (Homo sapiens, UniProt P16471).
T1 construct: dimeric (hPRLR.mFc)
The experiment is described as above. In kind it is binding. The settings on record: antibody-capture format, analyte hPRLR.mFc. The procedure: as §1

Experiment [3] concerns the target T2, hPRLR.mmh (soluble monomeric human PRLR) (Homo sapiens, UniProt P16471).
T2 construct: soluble monomeric (hPRLR.mmh); mmh (myc-myc-hexahistidine)
The experiment is described as above. Format: binding. The following applies: antibody-capture format, analyte hPRLR.mmh. The procedure: as §1

Experiment [4] deals with HEK293/hPRLR/STAT5-Luc cells (human PRLR). As to the kind of experiment: STAT5-Luc luciferase reporter assay, blocking of PRL-mediated receptor activation. The settings on record: for IC50: 5 nM constant PRL, 6 hr at 37° C.; for Percent Blocking at 100 nM Antibody: 5 nM PRL. In kind it is cell-based. The source says:
The ability of anti-PRLR antibodies to block prolactin (PRL)-mediated receptor activation was examined in a luciferase-based reporter assay. The endocrine hormone PRL binds to the extracellular domain of its cognate receptor PRLR, triggering rapid homodimerization and activating several downstream signaling cascades.
In this example, an engineered cell line was used to determine the ability of anti-PRLR antibodies to block ligand activation of the PRLR receptor. Briefly, HEK293/hPRLR/STAT5-Luc cell lines with stable incorporation of a human PRLR expression cassette and the STAT5-dependent luciferase reporter were generated via sequential rounds of Lipofectamine® 2000-mediated transfection (LifeTechnologies, Carlsbad, Calif.). Cells were selected for at least two weeks in the presence of 500 μg/mL G418 (hPRLR) and 100 μg/mL hygromycin B (STAT5-Luc). The STAT5-Luc assay utilized 2×10^5 HEK293/hPRLR/STAT5-Luc cells seeded in complete growth medium on PDL-coated 96 well plates grown overnight at 37° C., 5% CO2. To generate antibody inhibition curves, cells were incubated (6 hr at 37° C.) with serially diluted anti-human PRLR antibodies (100 nM to 24 pM) in the presence of 5 nM constant PRL before recording signal. PRL dose response curves were generated by the addition of serially diluted PRL (100 nM to 24 pM) to cells and recording signal after a 6 hr (37° C.) incubation in the absence of antibodies. The ability of the antibodies to activate PRLR in the absence of ligand was also assessed.
Luciferase activity was measured with ONE-GLO™ reagent (Promega, Madison, Wis.). Relative light units (RLUs) were measured on a Victor luminometer (Perkin Elmer, Shelton, Conn.). EC50/IC50 values were determined from a four-parameter logistic equation over an 8-point response curve using GraphPad Prism. Percent blocking and percent activation are reported for the highest antibody dose.

For experiment [5], the target named is T3, PRLR-expressing cells (T47D) (Homo sapiens, UniProt P16471).
T3 construct: a native PRLR expressing cell line (T47D); endogenous in cells; host or cells: T47D
T3 sequence (P16471 25-622): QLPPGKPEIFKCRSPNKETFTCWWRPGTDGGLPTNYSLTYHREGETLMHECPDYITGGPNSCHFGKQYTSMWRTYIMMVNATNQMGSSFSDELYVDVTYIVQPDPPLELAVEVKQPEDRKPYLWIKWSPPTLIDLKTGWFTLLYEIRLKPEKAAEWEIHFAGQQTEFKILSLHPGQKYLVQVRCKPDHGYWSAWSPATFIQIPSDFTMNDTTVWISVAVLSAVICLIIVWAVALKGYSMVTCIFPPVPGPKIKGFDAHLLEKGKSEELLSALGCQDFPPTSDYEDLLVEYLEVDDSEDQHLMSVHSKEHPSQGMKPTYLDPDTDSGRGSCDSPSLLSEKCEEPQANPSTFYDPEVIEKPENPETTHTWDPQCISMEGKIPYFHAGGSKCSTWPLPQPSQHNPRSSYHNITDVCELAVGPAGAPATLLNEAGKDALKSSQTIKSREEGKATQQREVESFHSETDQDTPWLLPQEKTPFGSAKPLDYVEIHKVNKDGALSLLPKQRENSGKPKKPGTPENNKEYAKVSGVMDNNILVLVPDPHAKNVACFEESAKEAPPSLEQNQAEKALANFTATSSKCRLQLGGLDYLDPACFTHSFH
As to the kind of experiment: Antibody binding and internalization by PRLR-expressing cells (imaging). In kind it is cell-based. The following applies: [mAb] (0.67 nM); for % Internalization relative to Control I: alexa488 intensity in intracellular vesicles, 1 h at 37° C.; for % Total Binding relative to Control I: whole cell alexa488 intensity at 37° C. The procedure:
In this Example, the internalization of anti-PRLR antibodies by PRLR-expressing cells (T47D) was assessed. Briefly, 20,000 T47D cells were seeded in collagen coated 96 well plates. […] Cells were then incubated with alexa488 conjugated anti-hFc Fab secondary antibodies for 30 minutes on ice followed by two additional PBS washes. Antibodies were allowed to internalize for 1 h at 37° C. in internalization buffer (PBS+2% FBS) or remained at 4° C. Cells were fixed in 4% formaldehyde, nuclei were stained with DRAQ5 (Cell signaling), and images were acquired on the ImageXpress micro XL (Molecular Devices). Whole cell alexa488 intensity at 37° C. (Binding) and the alexa488 intensity in the intracellular vesicles at 37° C. (Internalization) were determined via Columbus image analysis software (PerkinElmer).

T1 sequence (P16471 with tags, fused parts or gaps): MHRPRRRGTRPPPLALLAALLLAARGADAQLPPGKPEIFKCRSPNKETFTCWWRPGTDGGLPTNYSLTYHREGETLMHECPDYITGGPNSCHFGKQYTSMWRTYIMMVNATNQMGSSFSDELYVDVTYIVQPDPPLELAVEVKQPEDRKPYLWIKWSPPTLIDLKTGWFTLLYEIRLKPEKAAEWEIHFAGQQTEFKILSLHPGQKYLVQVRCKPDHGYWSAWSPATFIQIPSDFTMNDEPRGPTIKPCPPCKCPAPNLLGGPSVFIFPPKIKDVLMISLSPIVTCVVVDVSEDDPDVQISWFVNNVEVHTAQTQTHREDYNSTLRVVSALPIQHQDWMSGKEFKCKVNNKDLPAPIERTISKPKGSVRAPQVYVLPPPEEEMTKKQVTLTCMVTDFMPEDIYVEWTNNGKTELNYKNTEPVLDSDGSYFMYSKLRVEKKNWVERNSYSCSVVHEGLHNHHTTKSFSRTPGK
T2 sequence (P16471 with tags, fused parts or gaps): as the sequence (as listed by the source) above, with V105I, T139A, M154I, T187I, I236T counted along it

B1: H1H6960N: human IgG1 Fc form of H2M6960N; anti-PRLR; HCVR/LCVR SEQ ID NOs 322/330 (antibody, V domains shown)
VH: EVQLVESGGGLVKPGGSLRLSCAASGITFSSYSMNWVRQAPGKGLEWVSSISTRSSLIHYADSVKGRFTISRDNAKNSLYLQMNSLRDEDTAVYYCARWDAAAAFDYWGQGTLVIVSS
VL: DIQLTQSPSFLSASVGDRVTITCWASQGISSYLAWYQQKPGKAPKLLIYVASTLQSGVPSRFSGSGSGTEFTLTISSLQPEDFATYFCQQLNSYPLTFGGGTKVEIK
modifications: human IgG1 Fc
What is called Kd is the equilibrium constant for the complex coming apart. Read a high Kd as a looser complex. As a reminder, the IC50 is the midpoint of a concentration-inhibition curve. Read a low IC50 as inhibition by little substance. Turning to B1, the Kd in experiment [1] (25° C.) was found to be 6.2 nM; in experiment [1] (37° C.) it was 14.9 nM; in experiment [2] (25° C.), 0.141 nM; in experiment [2] (37° C.), 0.5 nM; in experiment [3] (25° C.), 6.74 nM; in experiment [3] (37° C.), 16.2 nM. In addition, the T½ in experiment [1] (25° C.) turned out to be 19.8 min; in experiment [1] (37° C.) it was 9.0 min; in experiment [2] (25° C.), 324.4 min; in experiment [2] (37° C.), 78.7 min; in experiment [3] (25° C.), 15.8 min; in experiment [3] (37° C.) it was 5.8 min. The same molecule gave a half-inhibitory concentration (IC50) in experiment [4] of 1.58 nM. Moreover, in experiment [4], the “Percent Blocking at 100 nM Antibody” value is recorded as 100%. In experiment [5], the “% Internalization relative to Control I” value is recorded as 120.0%. In addition, the “% Total Binding relative to Control I” value in experiment [5] is listed as 89.7%.

B2: H1H6958N2: human IgG1 Fc form of H2M6958N2; anti-PRLR, receptor blocking; HCVR/LCVR SEQ ID NOs 290/298 (antibody, V domains shown)
VH: QVQLVESGGGVVQPGRSLRLSCGASGFTFRNYGMQWVRQGPGKGLEWVTLISFDGNDKYYADSVKGRFTISRDNSKNTLFLQMNSLRTEDTAVYYCARGGDFDYWGQGTLVTVSS
VL: DIQMTQSPSSLSASVGDRVTITCRASQDIRKDLGWYQQKPGKAPKRLIYAASSLHSGVPSRFSGSGSGTEFTLTISSLQPEDFATYYCLQHNSYPMYTFGQGTKLEIK
modifications: human IgG1 Fc
Consider B2, for which the Kd was 1.44 nM in experiment [1] (25° C.); 4.08 nM in experiment [1] (37° C.); 0.0867 nM in experiment [2] (25° C.); 0.167 nM in experiment [2] (37° C.); 1.17 nM in experiment [3] (25° C.); 3.16 nM in experiment [3] (37° C.). For the same molecule, the T½ in experiment [1] (25° C.) is 41.3 min; in experiment [1] (37° C.), 8.6 min; in experiment [2] (25° C.) it was 315.8 min; in experiment [2] (37° C.), 83.3 min; in experiment [3] (25° C.), 42.5 min; in experiment [3] (37° C.), 8.8 min. Further, it took 0.198 nM to reach half-maximal inhibition in experiment [4] (IC50). The “Percent Blocking at 100 nM Antibody” value in experiment [4] was determined as 100%. Besides, the “% Internalization relative to Control I” value in experiment [5] was 169.0%. The “% Total Binding relative to Control I” value in experiment [5] came to 161.5%.

B3: H1H6959N2: human IgG1 Fc form of H2M6959N2; anti-PRLR; HCVR/LCVR SEQ ID NOs 306/314 (antibody, V domains shown)
VH: EVQLVESGGGLVQPGRSLRLSCAASGFTFDDYAMHWVRQAPGKGLEWVSGISWHSGIIGYADSVKGRFTISRDNAKNSLYLQMNSLRTEDAALYYCAKIGSYFYFDSWGQGTLVTVSS
VL: EIVLTQSPGTLSLSPGERATLSCRASQSVSSNYLAWYQQKPGQAPRLLIYGASSRATGIPDRFSGSGSGTDFTLTISRLEPEDFAVYYCQQFGSSGYTFGQGTNLEIK
modifications: human IgG1 Fc
B3: the dissociation constant (Kd) stood at 129 nM in experiment [1] (25° C.); 370 nM in experiment [1] (37° C.); 1.45 nM in experiment [2] (25° C.); 4.51 nM in experiment [2] (37° C.); 202 nM in experiment [3] (25° C.); 681 nM in experiment [3] (37° C.). Besides, the T½ in experiment [1] (25° C.) came to 0.7 min; in experiment [1] (37° C.), 0.7 min; in experiment [2] (25° C.) it was 22.3 min; in experiment [2] (37° C.) it was 5.0 min; in experiment [3] (25° C.), 0.3 min; in experiment [3] (37° C.), 0.4 min. Moreover, the “Percent Blocking at 100 nM Antibody” value in experiment [4] came out at 52%. In addition, the “% Internalization relative to Control I” value in experiment [5] amounted to 15.3%. For the same molecule, the “% Total Binding relative to Control I” value in experiment [5] is recorded as 2.0%.
